Source: PMC5942779, “Identification of a peptide inhibitor for the histone methyltransferase WHSC1” (PLoS ONE, 2018)
Square brackets hold non-standard residues; d marks the D form. Nle = CCCC[C@H](N)C(=O)O

Key:
Experiment in all cases: cell-based or functional assay
EZH1 = EZH1 (UniProt Q92800 1-747)
EZH2 = EZH2 (UniProt Q15910 1-746)
G9a = G9a (UniProt Q96KQ7 1-1210)
SMYD2 = SMYD2 (UniProt Q9NRG4 1-433)
SETDB1 = SETDB1 (UniProt Q15047 1-1291)
PRMT6 = PRMT6 (UniProt Q96LA8 1-375)

Measured: Biochemical IC50 (enzymatic inhibition, panel of HMT enzymes)

SMYD2, sequence (Q9NRG4 whole entry): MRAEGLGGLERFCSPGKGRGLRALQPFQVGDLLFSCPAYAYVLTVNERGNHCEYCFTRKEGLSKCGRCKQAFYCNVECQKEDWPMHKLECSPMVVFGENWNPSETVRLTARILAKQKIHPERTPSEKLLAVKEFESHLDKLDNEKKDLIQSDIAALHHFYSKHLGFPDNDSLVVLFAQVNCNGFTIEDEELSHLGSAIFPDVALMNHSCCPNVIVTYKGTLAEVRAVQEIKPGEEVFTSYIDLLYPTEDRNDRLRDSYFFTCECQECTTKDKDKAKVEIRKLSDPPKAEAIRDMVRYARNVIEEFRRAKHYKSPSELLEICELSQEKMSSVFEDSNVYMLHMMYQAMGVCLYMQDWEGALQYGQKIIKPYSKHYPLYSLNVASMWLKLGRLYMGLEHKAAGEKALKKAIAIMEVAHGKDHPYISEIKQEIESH
PRMT6, sequence (Q96LA8 whole entry): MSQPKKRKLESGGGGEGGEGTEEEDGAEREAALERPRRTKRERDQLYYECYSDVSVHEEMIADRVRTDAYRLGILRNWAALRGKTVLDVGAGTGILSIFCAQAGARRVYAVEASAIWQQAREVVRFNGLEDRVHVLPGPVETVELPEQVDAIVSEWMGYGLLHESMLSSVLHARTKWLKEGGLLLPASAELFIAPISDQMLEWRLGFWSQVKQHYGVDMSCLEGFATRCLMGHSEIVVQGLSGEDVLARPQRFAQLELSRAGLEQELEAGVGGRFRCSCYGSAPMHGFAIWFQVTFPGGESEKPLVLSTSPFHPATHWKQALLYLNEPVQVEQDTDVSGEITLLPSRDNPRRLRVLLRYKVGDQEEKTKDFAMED
EZH2, sequence (Q15910 whole entry): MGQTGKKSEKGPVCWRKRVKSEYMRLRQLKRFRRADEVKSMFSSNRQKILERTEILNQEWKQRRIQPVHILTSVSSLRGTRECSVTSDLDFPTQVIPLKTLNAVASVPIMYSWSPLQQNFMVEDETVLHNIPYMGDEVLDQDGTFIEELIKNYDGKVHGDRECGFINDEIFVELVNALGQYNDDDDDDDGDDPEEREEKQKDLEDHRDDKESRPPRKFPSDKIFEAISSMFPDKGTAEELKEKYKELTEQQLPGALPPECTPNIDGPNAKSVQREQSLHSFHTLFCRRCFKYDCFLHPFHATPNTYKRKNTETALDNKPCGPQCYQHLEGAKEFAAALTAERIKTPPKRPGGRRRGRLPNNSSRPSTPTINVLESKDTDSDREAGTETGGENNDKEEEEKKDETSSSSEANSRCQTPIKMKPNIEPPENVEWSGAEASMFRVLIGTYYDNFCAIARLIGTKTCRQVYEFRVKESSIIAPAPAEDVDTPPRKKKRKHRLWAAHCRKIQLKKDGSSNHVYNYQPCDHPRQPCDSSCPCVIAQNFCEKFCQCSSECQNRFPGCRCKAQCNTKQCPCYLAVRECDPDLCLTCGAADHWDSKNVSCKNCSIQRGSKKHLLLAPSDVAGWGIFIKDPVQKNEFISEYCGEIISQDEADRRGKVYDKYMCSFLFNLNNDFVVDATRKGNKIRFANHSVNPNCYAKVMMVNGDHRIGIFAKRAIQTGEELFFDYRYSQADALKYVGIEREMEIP
G9a, sequence (Q96KQ7 whole entry): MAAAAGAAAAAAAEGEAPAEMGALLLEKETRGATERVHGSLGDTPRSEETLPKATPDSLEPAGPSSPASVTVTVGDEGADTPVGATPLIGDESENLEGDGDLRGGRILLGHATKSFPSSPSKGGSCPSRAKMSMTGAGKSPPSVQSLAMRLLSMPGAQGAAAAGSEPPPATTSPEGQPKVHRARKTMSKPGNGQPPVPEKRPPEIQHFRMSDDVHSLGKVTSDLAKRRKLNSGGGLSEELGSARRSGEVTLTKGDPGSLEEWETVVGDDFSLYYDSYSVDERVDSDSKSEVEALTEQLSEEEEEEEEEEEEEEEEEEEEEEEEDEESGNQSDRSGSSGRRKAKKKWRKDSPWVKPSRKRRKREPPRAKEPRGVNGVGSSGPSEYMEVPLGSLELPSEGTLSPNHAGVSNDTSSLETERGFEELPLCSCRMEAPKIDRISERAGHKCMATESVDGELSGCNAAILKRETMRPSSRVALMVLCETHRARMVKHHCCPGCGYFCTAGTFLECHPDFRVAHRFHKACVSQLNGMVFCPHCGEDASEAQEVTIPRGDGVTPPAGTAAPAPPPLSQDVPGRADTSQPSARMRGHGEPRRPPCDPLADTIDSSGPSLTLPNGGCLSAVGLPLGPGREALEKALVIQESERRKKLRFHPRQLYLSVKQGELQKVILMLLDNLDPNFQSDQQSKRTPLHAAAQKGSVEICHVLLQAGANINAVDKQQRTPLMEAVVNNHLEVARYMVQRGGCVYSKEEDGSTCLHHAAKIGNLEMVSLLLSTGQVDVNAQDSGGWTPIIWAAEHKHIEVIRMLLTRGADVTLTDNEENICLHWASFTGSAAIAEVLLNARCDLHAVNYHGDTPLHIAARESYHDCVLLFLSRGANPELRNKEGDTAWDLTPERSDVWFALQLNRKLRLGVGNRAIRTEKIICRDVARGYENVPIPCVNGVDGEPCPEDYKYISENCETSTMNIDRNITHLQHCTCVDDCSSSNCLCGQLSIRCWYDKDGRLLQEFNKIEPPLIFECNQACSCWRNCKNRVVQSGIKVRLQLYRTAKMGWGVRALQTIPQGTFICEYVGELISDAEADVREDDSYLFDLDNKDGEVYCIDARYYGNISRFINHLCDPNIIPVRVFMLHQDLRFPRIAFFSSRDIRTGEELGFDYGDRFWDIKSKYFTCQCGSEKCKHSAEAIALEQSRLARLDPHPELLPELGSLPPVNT
EZH1, sequence (Q92800 whole entry): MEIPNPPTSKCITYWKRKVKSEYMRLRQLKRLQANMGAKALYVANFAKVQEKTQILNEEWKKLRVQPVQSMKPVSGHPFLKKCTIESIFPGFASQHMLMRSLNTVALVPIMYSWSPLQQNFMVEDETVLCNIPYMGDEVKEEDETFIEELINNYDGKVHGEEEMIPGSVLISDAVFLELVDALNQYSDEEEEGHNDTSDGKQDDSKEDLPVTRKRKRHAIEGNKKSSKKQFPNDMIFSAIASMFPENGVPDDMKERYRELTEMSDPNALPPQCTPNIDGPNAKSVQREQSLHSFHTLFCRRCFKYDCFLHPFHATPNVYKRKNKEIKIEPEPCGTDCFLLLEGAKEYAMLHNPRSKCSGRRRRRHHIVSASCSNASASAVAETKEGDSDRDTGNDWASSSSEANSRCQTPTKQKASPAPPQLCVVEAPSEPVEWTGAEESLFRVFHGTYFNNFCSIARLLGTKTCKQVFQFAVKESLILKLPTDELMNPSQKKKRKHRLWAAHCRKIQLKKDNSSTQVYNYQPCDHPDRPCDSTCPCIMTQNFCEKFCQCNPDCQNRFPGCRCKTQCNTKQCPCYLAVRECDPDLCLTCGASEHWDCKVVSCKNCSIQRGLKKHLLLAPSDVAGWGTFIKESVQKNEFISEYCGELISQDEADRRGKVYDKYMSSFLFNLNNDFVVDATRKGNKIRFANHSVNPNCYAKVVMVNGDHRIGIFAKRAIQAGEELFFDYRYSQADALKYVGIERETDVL

B1: PTD2 (peptide)
chain: Ac-GV[Nle]RI-NH2
> 200 µM: all assays above
